These results are taken from patent publication US20170198014A1 (UNIVERSITY WASHINGTON THROUGH ITS CENTER FOR …, published 2017).

The test concerns the target hemagglutinin H1 (A/California/04/2009) (influenza A virus A/California/04/2009 …, UniProt P26140 18-529). Nature of the test: yeast surface display titration.

B1: SB24alt1-1 (designed binder)
chain: ASGMLAISMDTDKISNSFEDCKYFQLYVLSAGWTNTIFNDESGKEEIVKMSVDAIICKNISEENYKKFSKKIEIYHAEGDDVDKNISLFLEGELSKISNP
Turning to B1, the binding result is “no binding”.

B2: SB24solo2 (designed binder)
chain: ASGMLAISMDTDKISNSFEDCKYFLIELKSAGWTNTIFNDESGKEEIVKMGVDAIICKNISEENYKKFSKKIEIYHAEGDDVNKNISLFLEGELSKISNP
Take B2: the binding result is “no binding”.
